Publication PMC9760430, “A stapled chromogranin A-derived peptide homes in on tumors that express αvβ6 or αvβ8 integrins” (International Journal of Biological Sciences, 2023)

Legend:
[1] = plasma pharmacokinetics in mice; assay type: in vivo; conditions: BALB/c mice, 1 nmol i.v.; plasma fluorescence 5-1440 min; two-phase exponential decay fit; 4 mice per point
Method: Figure S13. Plasma pharmacokinetics of 5a-IRDye in mice.
Eight BALB/c mice were divided in 2 groups (4 mice/group) and injected i.v. with 5a-IRDye (1 nmol). Their blood was then collected into heparinized tubes at 5, 30, 120, 240, and 1440 min (group 1) or after 15, 60, 180, 360, and 1440 min (group 2). Plasma samples (20 µl) were diluted with PBS (50 µl, final volume) and transferred to a black 96-well microtiter plate. The amount of fluorescence in each sample was then quantified using an Infinite 200Pro reader plate (TECAN, excitation wavelength: 766 nm; emission wavelength: 810 nm; excitation bandwidth: 9 nm; emission bandwidth: 20 nm; gain: 180 optimal (100%) and number of flashes:
25). (Dots, mean ± SE, 4 mice). Plasma half-life of 5a-IRdye was calculated using a two-phase exponential decay equation (GraphPad Prism software, San Diego California).
Chromogranin A binds to avb6-integrin and promotes wound healing in mice. Cell Mol […]
(1 picture or pasted object on this page, not shown here)

[2] = test system: orthotopically implanted BxPC-3 tumors; assay: NIR-fluorescence imaging, orthotopic BxPC-3 pancreatic adenocarcinoma in nude mice; conditions: ex vivo NIR fluorescence, 24 h after 1.2 nmol i.v.
Method: Mice were injected with peptide-IRDye conjugate (~1 nmol) into the tail vein and imaged at various time points (0-72 h) using the IVIS Spectrum CT Imaging System (PerkinElmer) (see Supplemental Materials). For blocking experiments, mice were injected intravenously with unlabeled peptide 5a (128 nmol/mouse) 10 min before 5a-IRDye.
Figure 3 5a-IRDye homes in on orthotopically implanted BxPC-3 tumors. Nu/nu mice were orthotopically implanted with a Matrigel solution containing BxPC-3 cells or a Matrigel solution without cells (n=3-4 mice). After 18 days, mice were injected i.v. with 5a-IRDye (1.2 nmol), and NIR images were acquired after 24 h. A control mouse, which was not surgically manipulated, was injected with the vehicle and used as a reference for quantification of autofluorescence in the NIR region. (A) Representative fluorescence images of the exposed pancreas of control and tumor-bearing mice injected with or without 5a-IRDye as indicated. (B) Ex vivo fluorescence imaging and photographs of the removed pancreas. […]
Images were acquired with three-four mice simultaneously. […] For the quantification of the fluorescence uptake by the exposed pancreas the left kidney was surgically removed before imaging. Regions of interest (ROI) were drawn on the images, and the average (Avg) radiant efficiency was calculated using the Living Image 4.3.1 software (PerkinElmer). […]

With `CC[C@H](C)[C@H](NC(=O)[C@H](CCCNC(=N)N)NC(=O)[C@H](CC(C)C)NC(=O)[C@H](CC(=O)O)NC(=O)CNC(=O)[C@H](CCCNC(=N)N)NC(=O)[C@H](CC(C)C)NC(=O)[C@@H](NC(=O)[C@H](CCC(=O)O)NC(=O)[C@H](Cc1ccccc1)NC(=O)[C@@H](N)CSC1CC(=O)N(CCNC(=O)CCCCCN2C(=CC=C3CCCC(C=CC4=[N+](CCCCS(=O)(=O)[O-])c5ccc(S(=O)(=O)O)cc5C4(C)C)=C3Oc3ccc(S(=O)(=O)O)cc3)C(C)(C)c3cc(S(=O)(=O)O)ccc32)C1=O)[C@@H](C)O)C(=O)N[C@@H](CC(C)C)C(=O)N[C@@H](CO)C(=O)N[C@H](C(=O)N[C@@H](CC(C)C)C(=O)N[C@@H](CCCNC(=N)N)C(=O)N[C@H]1Cc2cn(nn2)CCCC[C@@H](C(=O)N[C@@H](CCCCN)C(=O)N[C@@H](CCC(=O)O)C(=O)N[C@@H](CC(C)C)C(=O)N[C@@H](CCC(N)=O)C(=O)N[C@@H](CC(=O)O)C(N)=O)NC(=O)[C@H](CC(C)C)NC(=O)[C@H](CC(N)=O)NC(=O)[C@H](CCC(N)=O)NC1=O)[C@@H](C)CC` (some centres unmarked) [5a-IRDye] the plasma half-life [1] was ~ 8 min and the “accumulation in other explanted organs” value [2] was “accumulated also in kidney, lung, and liver, and little or not at all in heart, brain, muscle, bone, spleen, intestine, and stomach”.
